From article PMC4726260, “Combined ligand-observe ^19F and protein-observe ^15N,^1H-HSQC NMR suggests phenylalanine as the key Δ-somatostatin residue recognized by human protein disulfide isomerase” (Scientific Reports, 2016) come the findings set out here.

Experiment in all cases: NMR titration; ligand-observed 19F 1D; 0.15 mM fluorinated peptide constant, 15N b'x titrated (ratios 1:4 to 2.5:1); 310 K; 20 mM sodium phosphate pH 7.0, 50 mM NaCl, 5% D6-DMSO, 5% 2H2O, 0.05% sodium azide
For test [1], the target named is F1 Δ-som.
The target in test [2] is F1,2,3 Δ-som.
Test [3] has as its target F2 Δ-som.
Test [4] concerns the target F3 Δ-som.

Usually Kd stands for a measure of binding affinity in units of concentration. For the substance “human protein disulphide isomerase (hPDI) fragment b'x (domain or fragment)”, in test [1], the Kd was determined as 109 µM. Besides, in test [2], the KD tracked on the F1 (Phe6) 19F resonance was 108 µM, the KD tracked on the F2 (Phe7) 19F resonance stood at 33 µM, the KD tracked on the F3 (Phe11) 19F resonance turned out to be 45 µM and the Kd was determined as 62 µM. In addition, the Kd in test [3] is 27 µM. For the same substance, in test [4], the Kd is 97 µM.
